The text below walks through data of IntAct's records for PubMed 20562859.

One test has as its target T1, tbd2b_human TBC1D2B (UniProt Q9UPU7).
T1 sequence: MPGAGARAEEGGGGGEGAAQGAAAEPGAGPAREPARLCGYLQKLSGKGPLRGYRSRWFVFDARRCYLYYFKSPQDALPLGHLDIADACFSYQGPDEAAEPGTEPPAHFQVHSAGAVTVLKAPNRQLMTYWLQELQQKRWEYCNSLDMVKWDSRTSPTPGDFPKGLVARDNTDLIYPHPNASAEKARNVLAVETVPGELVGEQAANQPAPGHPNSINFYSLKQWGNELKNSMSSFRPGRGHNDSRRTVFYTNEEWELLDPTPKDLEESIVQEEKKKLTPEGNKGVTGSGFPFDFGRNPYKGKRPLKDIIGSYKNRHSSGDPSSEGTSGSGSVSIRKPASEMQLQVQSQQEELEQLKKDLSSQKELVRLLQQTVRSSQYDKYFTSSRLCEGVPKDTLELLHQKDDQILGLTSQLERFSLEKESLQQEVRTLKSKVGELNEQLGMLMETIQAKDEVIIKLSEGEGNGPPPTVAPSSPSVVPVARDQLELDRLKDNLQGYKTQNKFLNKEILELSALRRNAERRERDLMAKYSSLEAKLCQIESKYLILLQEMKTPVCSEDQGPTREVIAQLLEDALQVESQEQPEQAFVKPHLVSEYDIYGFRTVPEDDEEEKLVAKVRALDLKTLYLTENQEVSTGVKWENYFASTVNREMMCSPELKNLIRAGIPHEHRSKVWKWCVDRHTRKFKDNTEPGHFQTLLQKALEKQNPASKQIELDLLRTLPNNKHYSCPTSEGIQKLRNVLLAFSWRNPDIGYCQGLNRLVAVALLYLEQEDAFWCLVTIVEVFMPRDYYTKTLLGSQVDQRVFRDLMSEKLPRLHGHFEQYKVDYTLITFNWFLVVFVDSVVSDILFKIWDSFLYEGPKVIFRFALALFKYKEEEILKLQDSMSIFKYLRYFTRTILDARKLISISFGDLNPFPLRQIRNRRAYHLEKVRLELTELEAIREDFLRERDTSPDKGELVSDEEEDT

In another test the target is uba5_human UBA5 (UniProt Q9GZZ9).
In the next test the target is T2, ulk1_human ULK1 (UniProt O75385).
T2 sequence: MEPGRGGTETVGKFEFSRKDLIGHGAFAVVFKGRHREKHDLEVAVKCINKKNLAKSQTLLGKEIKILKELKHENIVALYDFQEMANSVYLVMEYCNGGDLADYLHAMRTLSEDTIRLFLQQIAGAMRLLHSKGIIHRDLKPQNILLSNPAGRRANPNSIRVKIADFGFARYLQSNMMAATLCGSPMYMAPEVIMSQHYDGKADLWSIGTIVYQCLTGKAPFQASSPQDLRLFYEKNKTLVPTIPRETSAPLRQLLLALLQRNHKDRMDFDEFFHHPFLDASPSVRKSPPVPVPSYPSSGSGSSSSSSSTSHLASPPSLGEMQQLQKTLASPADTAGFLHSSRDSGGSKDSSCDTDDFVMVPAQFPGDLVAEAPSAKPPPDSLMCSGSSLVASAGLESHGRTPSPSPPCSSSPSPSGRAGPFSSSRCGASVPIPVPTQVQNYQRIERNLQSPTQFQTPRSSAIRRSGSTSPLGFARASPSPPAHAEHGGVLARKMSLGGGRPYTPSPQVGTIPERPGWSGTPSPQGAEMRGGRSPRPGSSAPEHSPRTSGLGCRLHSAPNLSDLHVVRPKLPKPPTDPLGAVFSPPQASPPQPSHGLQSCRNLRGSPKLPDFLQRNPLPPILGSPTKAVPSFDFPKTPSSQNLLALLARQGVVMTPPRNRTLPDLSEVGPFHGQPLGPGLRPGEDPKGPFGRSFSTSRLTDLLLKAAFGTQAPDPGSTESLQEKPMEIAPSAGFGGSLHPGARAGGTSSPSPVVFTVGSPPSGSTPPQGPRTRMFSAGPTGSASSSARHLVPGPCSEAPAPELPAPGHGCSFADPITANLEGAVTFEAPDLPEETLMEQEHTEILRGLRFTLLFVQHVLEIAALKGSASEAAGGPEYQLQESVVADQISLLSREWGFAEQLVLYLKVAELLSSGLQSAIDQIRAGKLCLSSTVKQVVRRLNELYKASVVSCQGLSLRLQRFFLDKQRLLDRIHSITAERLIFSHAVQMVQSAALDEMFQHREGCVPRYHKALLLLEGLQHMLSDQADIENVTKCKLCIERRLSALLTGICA

Chain of uba5_human UBA5 (Q9GZZ9 whole entry): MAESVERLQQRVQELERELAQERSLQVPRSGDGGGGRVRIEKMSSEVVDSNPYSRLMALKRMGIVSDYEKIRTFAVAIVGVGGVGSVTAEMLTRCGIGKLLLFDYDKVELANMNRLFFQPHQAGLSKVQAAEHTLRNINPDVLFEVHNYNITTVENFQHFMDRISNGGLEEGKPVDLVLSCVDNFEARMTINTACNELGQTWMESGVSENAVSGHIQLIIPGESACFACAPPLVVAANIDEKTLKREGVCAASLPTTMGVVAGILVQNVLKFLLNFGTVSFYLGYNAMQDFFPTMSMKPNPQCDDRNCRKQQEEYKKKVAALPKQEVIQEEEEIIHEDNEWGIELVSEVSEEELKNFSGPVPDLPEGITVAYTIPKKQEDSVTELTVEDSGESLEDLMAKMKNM

As to “Microtubule-associated protein 1 light chain 3 beta (Homo sapiens) (from UniProt Q9GZQ8) R69A”, the results for the “effect of a mutation on the interaction” value with tbd2b_human TBC1D2B, with uba5_human UBA5 and in the test with ulk1_human ULK1 were “disrupting interaction”, “disrupting interaction” and “decreasing interaction”, respectively.
